Consider 1 molecule from patent US20200325187A1 (Genentech, published 2020).

For assay [1], the target named is T1, hVEGF-A (8-109) (human, UniProt P15692 214-315).
T1 sequence (looked up): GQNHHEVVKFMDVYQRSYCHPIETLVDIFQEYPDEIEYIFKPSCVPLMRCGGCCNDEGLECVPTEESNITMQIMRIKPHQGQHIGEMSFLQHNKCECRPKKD
Nature of the assay: competition ELISA: VEGF-A (8-109) coated, constant Flt-1 receptor, peptide titrated; blocked ligand: Flt-1. The protocol: Binding specificity of each peptide was established by competition ELISA. […] After blocking with block buffer (PBS with 0.5% BSA and 0.05% TWEEN®20) for 2 hours at room temperature, the receptor-Fc fusions or biotinylated receptors were serially diluted using assay buffer (PBS with 0.5% BSA and 0.05% TWEEN®20) and incubated for 1 hour at room temperature. […] Competition ELISA was conducted in an identical fashion as described above except after blocking, a mixture of serially diluted peptide containing a constant concentration of receptor-Fc fusion or biotinylated receptor (concentration of receptor was set to EC₆₀) was added and incubated for 1 hour. All recombinant human proteins and antibodies were purchased from R &D Systems (Minneapolis, Minn.).
Background: ELISA stands for enzyme-linked immunosorbent assay.

The target in a further assay is T2, hVEGF-A F17A/M81A (human, UniProt P15692-4 34-135, F17A; M81A).
T2 construct: positions probably counted on the mature protein
T2 sequence (looked up): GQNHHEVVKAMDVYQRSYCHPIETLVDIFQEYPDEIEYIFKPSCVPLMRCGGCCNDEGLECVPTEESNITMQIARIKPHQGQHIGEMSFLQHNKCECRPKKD
Nature of the assay: site-directed mutants, SPR; no numbers printed for this mutant.

The target of assay [2] is T1, hVEGF-A (8-109). In words: spot phage ELISA. In short, it runs like this: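 Phage clones from four selection rounds were grown overnight at 37 °C with M13-KO7 helper phage. Bound phage was detected with anti-M13-HRP and TMB, with binding to BSA alone run in parallel as background.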
In the next assay the target is human VEGF-A 165 (human, UniProt P15692-4 27-191). In words: SPR. The protocol:
(§1) Depending on the format of the assay either a streptavidin sensor (SA) or a dextran-coated (CM5) sensor was utilized as described below.
(§2) Reaction was then quenched by addition of 10 molar excess of Glycine pH 8.0 and the sample was buffer exchanged into PBS using an Amicon 0.5 mL 3000 MWCO ultra-centrifugal filters (EMD Millipore). The biotinylation state of the protein was verified by LC-MS analysis. Biotinylated VEGF-A was then captured on the surface until a resonance unit (RU) signal of about ˜400. For immobilization of VEGF-A on CM5 sensor, the surface was first activated with a mixture of N-ethyl-N′-(3-dimethylaminopropyl)carbodiimide hydrochloride and N-hydroxysuccinimide (EDC/NHS) according to the supplier instructions. VEGF-A was then diluted into coupling buffer (0.1 M Acetate Buffer, pH 5.0) and injected until the signal reached about ˜400 RU followed by a wash with 1 M ethanolamine pH 8.0 to quench remaining activated sites.
For orientation: In SPR one partner is held on a chip, and binding of the other changes the refractive index at the surface.

The target of assay [3] is T1, hVEGF-A (8-109). Nature of the assay: SPR. How it is done: as §1, §2
For the next assay, the target named is T3, mouse VEGF-A 164 (mouse, UniProt Q00731-2 27-190).
T3 construct: also called mouse 164
T3 sequence (looked up): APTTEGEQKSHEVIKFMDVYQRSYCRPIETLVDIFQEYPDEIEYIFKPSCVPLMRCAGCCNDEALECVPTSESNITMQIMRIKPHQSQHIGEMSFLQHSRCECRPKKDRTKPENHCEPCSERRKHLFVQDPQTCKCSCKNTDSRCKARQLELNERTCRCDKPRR
Nature of the assay: SPR. How it is done: as §1, §2

Another assay deals with T4, rabbit VEGF-A (rabbit, UniProt G1T1L9 1-398).
T4 sequence: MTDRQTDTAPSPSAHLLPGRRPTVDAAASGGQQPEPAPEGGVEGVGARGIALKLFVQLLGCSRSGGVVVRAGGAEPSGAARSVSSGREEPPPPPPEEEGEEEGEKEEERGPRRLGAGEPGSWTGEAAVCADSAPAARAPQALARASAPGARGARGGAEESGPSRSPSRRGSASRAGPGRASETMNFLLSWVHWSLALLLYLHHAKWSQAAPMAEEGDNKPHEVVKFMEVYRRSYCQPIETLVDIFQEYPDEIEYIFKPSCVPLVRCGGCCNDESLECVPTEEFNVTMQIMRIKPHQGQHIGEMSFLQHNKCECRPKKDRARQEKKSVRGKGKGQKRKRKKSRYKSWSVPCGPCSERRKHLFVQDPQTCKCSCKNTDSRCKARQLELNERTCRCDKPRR
In words: SPR. How it is done: as §1, §2

The target in a further assay is T5, rat VEGF-A (rat, UniProt P16612-2 27-190, limits assumed).
T5 construct: also called rVEGF
T5 sequence (looked up): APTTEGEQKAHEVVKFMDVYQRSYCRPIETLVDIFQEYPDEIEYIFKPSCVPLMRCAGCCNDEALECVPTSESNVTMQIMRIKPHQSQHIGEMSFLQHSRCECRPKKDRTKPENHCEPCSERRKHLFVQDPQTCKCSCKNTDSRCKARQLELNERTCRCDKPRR
Nature of the assay: SPR. How it is done: as §1, §2

Assay [4] deals with T6, hVEGF-A (human, UniProt P15692-4 27-191, limits assumed). Nature of the assay: cell-based or functional assay.
The next assay deals with EGF (human, UniProt P01133 971-1023). Nature of the assay: competition ELISA: EGF coated, constant EGFR receptor, peptide titrated.
Sequence of EGF (P01133 971-1023 limits assumed): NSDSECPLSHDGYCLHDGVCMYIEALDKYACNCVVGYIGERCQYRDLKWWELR
For assay [5], the target named is T6, hVEGF-A. Nature of the assay: cell-based or functional assay. The source holds these as a separate data set.
For the next assay, the target named is NGF (human, UniProt P01138 122-241, limits assumed). In words: competition ELISA: NGF coated, constant NGFR receptor, peptide titrated.
Sequence of NGF (P01138 122-241 limits assumed): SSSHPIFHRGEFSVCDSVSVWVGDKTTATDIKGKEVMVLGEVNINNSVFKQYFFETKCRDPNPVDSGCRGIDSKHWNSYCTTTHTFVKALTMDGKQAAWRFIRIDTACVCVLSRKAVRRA
Assay [6] has as its target T6, hVEGF-A. Nature of the assay: cell-based or functional assay. The source holds these as a separate data set.
Another assay has as its target IGF-1 (human, UniProt P05019 49-118). In words: competition ELISA: IGF coated, constant IGFR receptor, peptide titrated.

Read-outs that look alike come from different tables or passages of the source.

Sequence of human VEGF-A 165 (P15692 other isoform, or with tags, fused parts or gaps limits assumed): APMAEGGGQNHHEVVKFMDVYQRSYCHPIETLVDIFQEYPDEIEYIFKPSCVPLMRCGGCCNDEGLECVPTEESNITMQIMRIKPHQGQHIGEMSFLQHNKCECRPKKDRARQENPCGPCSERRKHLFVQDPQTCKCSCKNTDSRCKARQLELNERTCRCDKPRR

What is called Kd is the concentration at which binding is half-saturated. A high value points to lower affinity. As for GCNIMLPFWGCGRDFECLAGCVCQYYQSCG (designed binder) [VEGF_CKP9.54.90], the “IC50 (read off the curve)” value with hVEGF-A (8-109) [1] was around 70 nM; in the assay with hVEGF-A [6], around 60 nM. Moreover, the binding result is “binds” with hVEGF-A F17A/M81A, “no binding (tested: 5 µM)” in the assay with EGF, “no binding (tested: 5 µM)” with NGF and “no binding (tested: 5 µM)” in the assay with IGF-1. Besides, the ELISA with hVEGF-A (8-109) [2] was found to be 2.3. Also, the “S/N vs BSA” value with hVEGF-A (8-109) [2] worked out at 29.5. Also, the Kd is 0.89 nM with human VEGF-A 165; 0.87 nM with hVEGF-A (8-109) [3]; 1.31 nM in the assay with mouse VEGF-A 164; 1.14 nM with rabbit VEGF-A; 0.9 nM in the assay with rat VEGF-A. For the same molecule, the “Cellular IC50” value with hVEGF-A [4] and with hVEGF-A [5] was 1.35 nM each time. Also, in the assay with hVEGF-A [4], the “FOLD [..] [..] TO VARIANT 9.54.90” value was 1 fold.
